Test results reported in patent US20240301038A1.

Biological target: SARS-CoV-2 native Spike (S) trimer (Acro Biosystems) (SARS-CoV-2), P0DTC2
Assay: ELISA on spike trimer
Settings: remark: other sources report otherwise

Binder	OD (450 nm)
AB-009769 (antibody, V domains shown) VH: EVQLVESGGGLVQPGGSLRLSCAASGFTFSSYWMSWVRQAPGKGLEWVANIKQDGSEKYYVDSVKGRFTISRDNAKNSLYLQMNSLRAEDTAVYYCARSPEVLWFGDPVLDNWFDPWGQGTLVTVSS VL: SYELTQPPSVSVSPGQTARITCSGDALPKQYAYWYQQKPGQAPVLVIYKDSERPSGIPERFSGSSSGTTVTLTISGVQAEDEADYYCQSADSSGTYPVVFGGGTKLTVL	2.87 OD (450 nm)
AB-009614 (antibody, V domains shown) VH: QVQLVESGGGVVQPGRSLRLSCAASGFTFSSYGMHWVRQAPGKGLEWVAVISYDGSNKYYADSVKGRFTISRDNSKNTLYLQMNSLRAEDTAVYYCAKDQKYYDILTGYYRSTYYYYYYGMDVWGQGTTVTVSS VL: not shown	0.361 OD (450 nm)
AB-009358 (antibody, V domains shown) VH: QVHLVQSGAEVKKPGASVKISCKASGYTFTSYYVHWVRQAPGQGLEWMGIIKPSGAGTIYAQKFQGRVTMTRDTSTSTVYMELSSLISEDTAVYYCARGGGVTDRDYWGQGTLVTVSS VL: QSALTQEASVSATVGQKVTLSCTGNTNNIGGYAVGWHQQISHGAPKTVMFGNSLPSGIPDRFSGSKSGTTASLIISGLQPEDEADYYCSTWDSSLGAVLFGGGTKLTVL	2.76 OD (450 nm)
AB-009281 (antibody, V domains shown) VH: EVQLVETGGGLIQPGGSLRLSCAASGFTVSSNYMSWVRQAPGKGLEWVSVIYSGGSTYYADSVKGRFTISRDNSKNTLYLQMNSLRAEDTAVYYCARDLYYYGMDVWGQGTTVTVSS VL: DIQLTQSPSFLSASVGDRVTITCRASQGISSYLAWYQQKPGKAPKLLIYAASTLQSGVPSRFSGSGSGTEFTLTISSLQPEDFATYYCQQLNSYPTFGQGTKVEIK	2.6 OD (450 nm)
AB-009615 (antibody, V domains shown) VH: QVQLVESGGGVVQPGRSLRLSCAASGFTFSSYGMHWVRQAPGKGLEWVAVIWYDGSNKYYADSVKGRFTISRDNSKNTLYLQMNSLRAEDTAVYYCAKVGSPYCSGGSCYSGYFDYWGQGTLVTVSS VL: not shown	2.8 OD (450 nm)
AB-009734 (antibody, V domains shown) VH: QVHLVQSGAEVKTPGASVRVSCKASGYTFTSHYMHWVRQAPGQGLEWMGLINPSGSGTAYPQHFQGRVTMTRDTSTTTDYMDLSSLRSEDTAMYFCARMERSGAFDLWGQGTMVTVSS VL: EIVLTQSPGTLSLSPGERATLSCRASQTISSRYLAWYYQKPGQAPRLLIQGSSIRATGIPDRFSGSGSGTDFTLTISRLEPEDFAVYYCQHYGSSPPMYTFGQGTKLEIK	3.57 OD (450 nm)
AB-009346 (antibody, V domains shown) VH: EVQLVESGGGVVRPGGSLRLSCAASGFTFDDYGMSWVRQAPGKGLEWVSGINWNGGSTGYADSVKGRFTISRDNAKNSLYLQMNSLRAEDTALYYCARWPLLGISGYYHYYMDVWGKGTTVTVSS VL: QSALTQPRSVSGSPGQSVTISCTGTSSDVGGYNYVSWYQQHPGKAPKLMIYDVSKRPSGVPDRFSGSKSGNTASLTISGLQAEDEADYYCCSYAGSYTLLFGGGTKLIVL	2.55 OD (450 nm)
AB-009661 (antibody, V domains shown) VH: QVQLVESGGGVVQPGRSLRLSCAASGFTFSSYGMHWVRQAPGKGLEWVAVISYDGSNKYYADSVKGRFTISRDNSKNTLYLQMNSLRAEDTAVYYCAKDYGDYGGMDVWGQGTTVTVSS VL: not shown	2.86 OD (450 nm)
AB-009620 (antibody, V domains shown) VH: QITLKESGPTLVKPTQTLTLTCTFSGFSLSTSGVGVGWIRQPPGKALEWLALIYWDDDKRYSPSLKSRLTITKDTSKNQVVLTMTNMDPVDTATYYCAHHEVATVFDYWGQGTLVTVSS VL: QSALTQPASVSGSPGQSITISCTGTSSDVGAYNYVSWYQQHPGKAPKLMIYEVSNRPSGVSNRFSGSKSGNTASLTISGLQAEDEADYYCSSYTSSSTVFGGGTKLTVL	2.7 OD (450 nm)
